Results as given in patent US8841272B2, “Double-stranded RNA-based nanoparticles for insect gene silencing” (Kansas State University Research Foundation, priority 2011, dated 2014).

B1: dsAgCHS2-f1: dsRNA synthesized using residues 3,846 to 4,235 of SEQ ID NO: 3 as the template (nucleic acid, listed as Anopheles gambiae)
DNA: ACACATCGAGTGGTGGTTCAACGTGAAGAACAAGATCAGCTTTGACGAAAGCACGGTCGAGATCATGATCCGGCGCGAGTACCTGGAGCTCGAACCGATCGGTTTGGTGTTTGTGATGTTCTTCGGTTTGATTCTCATCATTCAGTTTGTGGCCATGCTGATGCATCGGTTCGGTACCATCTCCCAGATTCTTGCCTCCACCGAGCTGAACTGGTACTGTTCGAAGAAGGCTAAGGATATGTCACTCGATGCGGAACTGCGCGAGAATGCGGTCGAAATTGCACGTCGACTGCAGCGCCCCAAACCGCAGTGGGACGAGGAAGATCTAGAGGACGAGCAGAAAGCTATTGGACGTCGCGACACGATCCATCGCATTCTCTACCAGCACAA
modifications: double-stranded RNA
B2: dsAgCHS1-f1: dsRNA synthesized using residues 2,267 to 2,635 of SEQ ID NO: 1 as the template (nucleic acid, listed as Anopheles gambiae)
DNA: TGAAACGCACATCTTCTTCGATGACGCGTTCGAAATTTCGGACCACAGCGACGAGGACATTCAGTGTAATCGGTTCGTGAAGATTCTTGTCGACACCATCGACGAAGCTGCCTCGGAAGTGCATCAGACCAACATTCGATTGAGACCGCCCAAAAAGTACCCAACACCGTACGGTGGACGACTGGTGTGGACGCTGCCCGGTAAAACGAAGATGATTGCCCACCTGAAGGACAAGGATCGCATCCGGCACCGTAAGCGTTGGTCTCAGGTCATGTACATGTACTATCTGCTCGGCCACCGGCTGATGGAGCTGCCGATTTCCGTCGACCGTAAGGAGGTGATGGCGGAAAACACCTACCTGCTGACGCT
modifications: double-stranded RNA
B3: dsAgCHS1-f2: dsRNA synthesized using residues 3,812 to 4,202 of SEQ ID NO: 1 as the template (nucleic acid, listed as Anopheles gambiae)
DNA: CAAAACGACGGACGAGAAGGCGCAGCTGATTCACATTGCCGATGCGCTGGACGCCATTACGAAGAAGATTGAGAATCTGGAAAAGCACATCGACCCGCACGGACATCATACGCGCAAGCGCACTGCGTCGGCGGGGTCGAAGGATCACCATCTCGGCTCGGTGGCGGAGGATACGGAGGACGATGATGAGGATGAAGATTCGGAGACTTCGACGCTGCAGCGCGACGAGCGCGACTTCCTCACCAACCCGTACTGGATCGAGGATCCGGATCTGAAGAAGGGCGAGGTGGACTTTATTTCCAGCACCGAGATCCAGTTCTGGAAGGACCTGATCGATAAGTACCTATACCCGATCGATCAAAACAAGGAGGAACAGGCACGTATTGCGCAC
modifications: double-stranded RNA
B4: dsAgCHS2-f2: dsRNA synthesized using residues 3,331 to 3,719 of SEQ ID NO: 3 as the template (nucleic acid, listed as Anopheles gambiae)
DNA: GCCAGCGCCGAAAAGGAGCAAATCGCACAAATTGCGGCATCGCTCAGCGAAATAAGTGTAAAAATGAAGGCACTGGAAATGAAATTAACCGGCAACGTCAGCGTAATGAGATCAGACGACGAAGATGATGACATCGGTAGTCTCGATATGCATCGTCCGGAAGGTAACCGTGGCCCATCCTCGCCATCCTCCACCTCGGGCGCCGCCTCCCCGATCCAGACGGTGAAAAATGATTCCCTCGAAGAGCCCGAGAAGCAGATTAACTATCTGCCGGATTGGTTGTACGACGTGGATTTGAAAAACGGCGACACTGAGACGATCTCCGCCTCGGAGGAGCAATTCTGGATTGAGCTGATCGAGAAGTATCTGAAGCCGCTCGATCTGTCGGA
modifications: double-stranded RNA

Key:
AgCHS2 = experiment: qPCR of AgCHS2 transcript level in mosquito larvae after larval feeding; format: in vivo, Anopheles gambiae; details: 3rd-instar larvae fed once a day for 4 days on dsRNA nanoparticles, vs GFP dsRNA nanoparticles
Method: (§1) A group of 15-20 3rd-instar mosquito larvae was transferred into a 500-ml glass beaker containing 100 ml of deionized water. One sixth of the gel slices that were prepared from 32 μg of dsRNA, as described above, were added into each beaker. Approximately an equal amount of the gel slices was used to feed the larvae once a day for a total of four days. Any potential phenotypic changes were visually examined in the larvae during the experiment. The transcript levels of AgCHS1 or AgCHS2, chitin contents, and other phenotypic changes were assessed in the larvae at the end of the experiment (i.e., day 4).
(§2) Total RNA was extracted from mosquito larvae with TRIzol reagent (Invitrogen, Carlsbad, Calif.) and 3.5 μg of total RNA was used for first strand cDNA synthesis using the First Strand cDNA Synthesis kit (Fermentas, Glen Burnie, Md.). The first strand cDNA was then used as template for PCR and qPCR. A gene encoding ribosomal protein S3, AgRPS3, was used as an internal reference. PCR was performed with a PCR Master Mix kit (Fermentas). The qPCR was performed using a Maxima SYBR Green qPCR Master Mix (Fermentas), and the 2^−ΔΔCT method was used to calculate the relative levels of AgCHS1 and AgCHS2 transcripts in the mosquito larvae fed on the food containing the AgCHS1 or AgCHS2 dsRNA-based nanoparticles as compared with the control larvae fed on the food containing the GFP dsRNA-based nanoparticles.
(§3) For data obtained from qPCR, relative expression levels in percentage were calculated by dividing the relative expression value (REV) of each gene in the AgCHS dsRNA-treated larvae by the REV of the same gene in the GFP dsRNA-treated larvae. After the percentage data of the relative AgCHS expression were transformed using arcsine square root transformation, the transformed data were subjected to ANOVA followed by Fisher's least significant difference (LSD) multiple comparisons to separate the means among the treatments using ProStat software (Poly Software International, Pearl River, N.Y.).

AgCHS1 = experiment: qPCR of AgCHS1 transcript level in mosquito larvae after larval feeding; format: in vivo, Anopheles gambiae; details: 3rd-instar larvae fed once a day for 4 days on dsRNA nanoparticles, vs GFP dsRNA nanoparticles
Method: as §1, §2, §3

Molecule | repression of the transcript level of AgCHS2 (AgCHS2) | repression of the transcript level of AgCHS1 (AgCHS1)
B1 | 63.4% | none of these AgCHS2 dsRNAs repressed
B2 | 48.4% | 62.8%
B3 | 57.9% | 52.4%
B4 | 48.8% | none of these AgCHS2 dsRNAs repressed
